According to patent US20210171647A1 (WUXI BIOLOGICS SHANGHAI, published 2021):
Changes are numbered by the printed parent chain.

Legend:
Test in all cases: ELISA, antibody coated, OX40-ECD.His mutant supernatant; relative to silent alanine substitutions;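 note: captured OX40 mutant protein detected with HRP-labelled anti-His antibody, absorbance read-out, scaled to the mean signal of control mutants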
[1] = target: T1, human OX40-ECD.His K120A (human, UniProt P43489 29-214)
T1 construct: extracellular domain; not shown: C-terminal His-tag
T1 sequence (looked up): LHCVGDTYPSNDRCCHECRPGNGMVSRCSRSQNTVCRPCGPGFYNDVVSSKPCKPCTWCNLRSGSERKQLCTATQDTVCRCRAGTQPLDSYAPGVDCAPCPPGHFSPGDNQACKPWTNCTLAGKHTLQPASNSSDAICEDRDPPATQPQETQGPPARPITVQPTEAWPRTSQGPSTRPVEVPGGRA

[2] = target: T2, human OX40-ECD.His P37A (human, UniProt P43489 29-214)
T2 construct: extracellular domain; not shown: C-terminal His-tag
T2 sequence (looked up): T1 sequence (looked up) with P9A, A92K

[3] = target: T3, human OX40-ECD.His P171A (human, UniProt P43489 29-214)
T3 construct: extracellular domain; not shown: C-terminal His-tag
T3 sequence (looked up): T1 sequence (looked up) with A92K, P143A

[4] = target: T4, human OX40-ECD.His P143A (human, UniProt P43489 29-214)
T4 construct: extracellular domain; not shown: C-terminal His-tag
T4 sequence (looked up): T1 sequence (looked up) with A92K, P115A

[5] = target: T5, human OX40-ECD.His V32A (human, UniProt P43489 29-214)
T5 construct: extracellular domain; not shown: C-terminal His-tag
T5 sequence (looked up): T1 sequence (looked up) with V4A, A92K

[6] = target: T6, human OX40-ECD.His N160A (human, UniProt P43489 29-214)
T6 construct: extracellular domain; not shown: C-terminal His-tag
T6 sequence (looked up): T1 sequence (looked up) with A92K, N132A

[7] = target: T7, human OX40-ECD.His P157A (human, UniProt P43489 29-214)
T7 construct: extracellular domain; not shown: C-terminal His-tag
T7 sequence (looked up): T1 sequence (looked up) with A92K, P129A

[8] = target: T8, human OX40-ECD.His N50A (human, UniProt P43489 29-214)
T8 construct: extracellular domain; not shown: C-terminal His-tag
T8 sequence (looked up): T1 sequence (looked up) with N22A, A92K

[9] = target: T9, human OX40-ECD.His Y36A (human, UniProt P43489 29-214)
T9 construct: extracellular domain; not shown: C-terminal His-tag
T9 sequence (looked up): T1 sequence (looked up) with Y8A, A92K

[10] = target: T10, human OX40-ECD.His D117A (human, UniProt P43489 29-214)
T10 construct: extracellular domain; not shown: C-terminal His-tag
T10 sequence (looked up): T1 sequence (looked up) with D89A, A92K

- Fold Change [1]: 0.896
- Fold Change [2]: 1.01
- Fold Change [3]: 1.02
- Fold Change [4]: 0.92
- Fold Change [5]: 1.01
- Fold Change [6]: 0.992
- Fold Change [7]: 0.992
- Fold Change [8]: 0.961
- Fold Change [9]: 1
- Fold Change [10]: 0.951
B1: 1.134.9-u1-IgG1L (antibody, V domains shown)
VH: QVQLQESGPGLVKPSGTLSLTCAVSGGSISSYNWWSWVRQPPGKGLEWIGEIYHGGNTNYNPSLKSRVTMSVDNSKNQFSLKLSSVTAADTAVYYCARAPGDWGGSPYFDFWGQGTLVTVSS
VL: SSELTQDPAVSVALGQTVRITCQGDNLRTYYASWYQQKPGQAPILLIYGRNKRPSGIPDRFSGSSSGNTASLTITGAQAEDEAAYYCNSRDSSGNPVVFGGGTKLTVL
notes: fully human IgG1, lambda
